Test results taken from IntAct's records for PubMed 19277847.

B1: Junctophilin-2 (Mus musculus), Q9ET78 (parent)
chain: MSGGRFDFDDGGAYCGGWEGGKAHGHGLCTGPKGQGEYSGSWNFGFEVAGVYTWPSGNTFEGYWSQGKRHGLGIETKGRWLYKGEWTHGFKGRYGIRQSTNSGAKYEGTWNNGLQDGYGTETYADGGTYQGQFTNGMRHGYGVRQSVPYGMAVVVRSPLRTSLSSLRSEHSNGTVAPDSPAADGPMLPSPPVPRGGFALTLLATAEAARPQGLFTRGTLLGRLRRSESRTSLGSQRSRLSFLKSELSSGASDAASTGSLAEGAEGPDDAAAPFDADIDATTTETYMGEWKNDKRSGFGVSERSSGLRYEGEWLDNLRHGYGRTTLPDGHREEGKYRHNVLVKGTKRRVLPLKSSKVRQKVEHGVEGAQRAAAIARQKAEIAASRTSHAKAKAEAAEQAALAANQESNIARTLAKELAPDFYQPGPEYQKRRLLQEILENSESLLEPPERGLGTGLPERPRESPQLHERETPQPEGGPPSPAGTPPQPKRPRPGASKDGLLSPGSWNGEPGGEGSRPATPSDGAGRRSPARPASEHMAIEALQPPPAPSQEPEVAMYRGYHSYAVRTGPPEPPPLEDEQEPEPEPEPEVRRSDSAPPSPVSATVPEEEPPAPRSPVPAKQATLEPKPIVPKAEPKAKARKTEARGLSKAGAKKKGRKEVAQAKEAEVEVEEVPNTVLICMVILLNIGLAILFVHLLT
partner: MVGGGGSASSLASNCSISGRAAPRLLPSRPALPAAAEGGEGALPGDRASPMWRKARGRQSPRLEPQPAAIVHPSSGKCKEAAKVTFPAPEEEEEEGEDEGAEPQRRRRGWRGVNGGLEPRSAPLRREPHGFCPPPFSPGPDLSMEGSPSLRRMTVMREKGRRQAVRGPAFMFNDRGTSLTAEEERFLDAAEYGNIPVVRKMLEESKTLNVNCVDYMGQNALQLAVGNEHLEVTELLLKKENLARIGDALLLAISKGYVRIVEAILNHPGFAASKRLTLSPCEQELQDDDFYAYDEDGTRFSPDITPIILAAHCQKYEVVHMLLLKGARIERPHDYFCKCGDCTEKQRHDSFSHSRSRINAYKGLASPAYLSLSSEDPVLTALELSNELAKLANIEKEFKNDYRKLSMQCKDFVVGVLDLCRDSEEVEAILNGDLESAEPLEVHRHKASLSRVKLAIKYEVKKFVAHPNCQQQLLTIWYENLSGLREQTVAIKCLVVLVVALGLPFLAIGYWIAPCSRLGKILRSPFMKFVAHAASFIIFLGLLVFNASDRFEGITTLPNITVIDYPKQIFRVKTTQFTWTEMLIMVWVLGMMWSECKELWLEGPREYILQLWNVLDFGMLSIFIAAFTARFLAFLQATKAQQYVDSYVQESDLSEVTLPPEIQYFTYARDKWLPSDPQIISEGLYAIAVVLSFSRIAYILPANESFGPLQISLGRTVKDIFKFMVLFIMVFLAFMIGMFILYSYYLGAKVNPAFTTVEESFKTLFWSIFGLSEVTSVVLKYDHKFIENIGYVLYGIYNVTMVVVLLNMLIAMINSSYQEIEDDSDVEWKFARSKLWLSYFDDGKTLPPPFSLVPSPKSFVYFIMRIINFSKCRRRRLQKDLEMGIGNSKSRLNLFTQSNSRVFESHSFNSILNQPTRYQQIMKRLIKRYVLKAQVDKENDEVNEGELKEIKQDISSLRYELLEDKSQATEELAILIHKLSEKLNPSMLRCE

Variants of: B1
Settings: with TRPC3, G1U2U3

Effect of a mutation on the interaction, decreasing interaction:
R216A
E227A
R222A
